Our source for the ratio to parent values is publication PMC9687537.

B1: GFP–WDR34-WT [human] / LIC3 [human (endogenous in RPE1)] (parent)
chain 1: MATRAQPGPLSQAGSAGVAALATVGVASGPGPGRPGPLQDETLGVASVPSQWRAVQGIRWETKSCQTASIATASASAQARNHVDAQVQTEAPVPVSVQPPSQYDIPRLAAFLRRVEAMVIRELNKNWQSHAFDGFEVNWTEQQQMVSCLYTLGYPPAQAQGLHVTSISWNSTGSVVACAYGRLDHGDWSTLKSFVCAWNLDRRDLRPQQPSAVVEVPSAVLCLAFHPTQPSHVAGGLYSGEVLVWDLSRLEDPLLWRTGLTDDTHTDPVSQVVWLPEPGHSHRFQVLSVATDGKVLLWQGIGVGQLQLTEGFALVMQQLPRSTKLKKHPRGETEVGATAVAFSSFDPRLFILGTEGGFPLKCSLAAGEAALTRMPSSVPLRAPAQFTFSPHGGPIYSVSCSPFHRNLFLSAGTDGHVHLYSMLQAPPLTSLQLSLKYLFAVRWSPVRPLVFAAASGKGDVQLFDLQKSSQKPTVLIKQTQDESPVYCLEFNSQQTQLLAAGDAQGTVKVWQLSTEFTEQGPREAEDLDCLAAEVAA
chain 2: MPSETLWEIAKAEVEKRGINGSEGDGAEIAEKFVFFIGSKNGGKTTIILRCLDRDEPPKPTLALEYTYGRRAKGHNTPKDIAHFWELGGGTSLLDLISIPITGDTLRTFSLVLVLDLSKPNDLWPTMENLLQATKSHVDKVIMKLGKTNAKAVSEMRQKIWNNMPKDHPDHELIDPFPVPLVIIGSKYDVFQDFESEKRKVICKTLRFVAHYYGASLMFTSKSEALLLKIRGVINQLAFGIDKSKSICVDQNKPLFITAGLDSFGQIGSPPVPENDIGKLHAHSPMELWKKVYEKLFPPKSINTLKDIKDPARDPQYAENEVDEMRIQKDLELEQYKRSSSKSWKQIELDS
B2: GFP–WDR34-WT [human] / DYNLL2 [human (endogenous in RPE1)] (parent)
chain 1: B1 chain 1
chain 2: not shown
B3: GFP–WDR34-WT [human] / WDR60 [human (endogenous in RPE1)] (parent)
chain 1: B1 chain 1
chain 2: MEPGKRRTKDDTWKADDLRKHLWAIQSGGSKEERKHREKKLRKESEMDLPEHKEPRCRDPDQDARSRDRVAEVHTAKESPRGERDRDRQRERRRDAKDREKEKLKEKHREAEKSHSRGKDREKEKDRRARKEELRQTVAHHNLLGQETRDRQLLERAERKGRSVSKVRSEEKDEDSERGDEDRERRYRERKLQYGDSKDNPLKYWLYKEEGERRHRKPREPDRDNKHREKSSTREKREKYSKEKSNSFSDKGEERHKEKRHKEGFHFDDERHQSNVDRKEKSAKDEPRKRESQNGEHRNRGASSKRDGTSSQHAENLVRNHGKDKDSRRKHGHEEGSSVWWKLDQRPGGEETVEIEKEETDLENARADAYTASCEDDFEDYEDDFEVCDGDDDESSNEPESREKLEELPLAQKKEIQEIQRAINAENERIGELSLKLFQKRGRTEFEKEPRTDTNSSPSRASVCGIFVDFASASHRQKSRTQALKQKMRSTKLLRLIDLDFSFTFSLLDLPPVNEYDMYIRNFGKKNTKQAYVQCNEDNVERDIQTEEIETREVWTQHPGESTVVSGGSEQRDTSDAVVMPKIDTPRLCSFLRAACQVMAVLLEEDRLAAEPSWNLRAQDRALYFSDSSSQLNTSLPFLQNRKVSSLHTSRVQRQMVVSVHDLPEKSFVPLLDSKYVLCVWDIWQPSGPQKVLICESQVTCCCLSPLKAFLLFAGTAHGSVVVWDLREDSRLHYSVTLSDGFWTFRTATFSTDGILTSVNHRSPLQAVEPISTSVHKKQSFVLSPFSTQEEMSGLSFHIASLDESGVLNVWVVVELPKADIAGSISDLGLMPGGRVKLVHSALIQLGDSLSHKGNEFWGTTQTLNVKFLPSDPNHFIIGTDMGLISHGTRQDLRVAPKLFKPQQHGIRPVKVNVIDFSPFGEPIFLAGCSDGSIRLHQLSSAFPLLQWDSSTDSHAVTGLQWSPTRPAVFLVQDDTSNIYIWDLLQSDLGPVAKQQVSPNRLVAMAAVGEPEKAGGSFLALVLARASGSIDIQHLKRRWAAPEVDECNRLRLLLQEALWPEGKLHK

One assay covers variants of B1. Kind of assay: GFP-trap purification, TMT-labelling and mass spectrometry. The following applies: with LIC3 [human (endogenous in RPE1)]; RPE1 WDR34 KO cell lines expressing GFP proteins, serum-starved for 24 h; read off a plot.
For chain 1 A341V, the ratio to parent is 2.2.

The variants in another assay derive from B2. The assay is described as above. The following applies: with DYNLL2 [human (endogenous in RPE1)]; RPE1 WDR34 KO cell lines expressing GFP proteins, serum-starved for 24 h; read off a plot.
With chain 1 T354M, the ratio to parent was determined as 1.5.

In another assay the parent is B3. Described as above. The following applies: with WDR60 [human (endogenous in RPE1)]; RPE1 WDR34 KO cell lines expressing GFP proteins, serum-starved for 24 h; read off a plot.
Consider chain 1 R182W, for which the ratio to parent stood at 1.7.

As for chain 1 K436R, the ratio to parent was 1.4. Take chain 1 R206C: the ratio to parent worked out at 1.5.

As for chain 1 A341V, the ratio to parent turned out to be 1.3.
